Laboratory results as given in patent US10568950B1, “Peptides, combination of peptides and scaffolds for use in immunotherapeutic treatment of various cancers” (Immatics Biotechnologies GmbH, priority 2015, dated 2020).

How the values were obtained:
[1] = molecular target: HLA-A*02 (Homo sapiens, UniProt P04439, D140Y/D185E/D98H/E176V/E277Q/G131W/G231S/I119V/I121R/I166T/I218V/N151K/N90K/P208A/P217A/Q86G/Q94H/R138H/R169H); test: MHC binding assay: UV-ligand exchange, beta2m ELISA (peptide exchange yield); conditions: binding to HLA-A*02, β2m ELISA
Description: Candidate peptides for T cell based therapies according to the present invention were further tested for their MHC binding capacity (affinity). The individual peptide-MHC complexes were produced by UV-ligand exchange, where a UV-sensitive peptide is cleaved upon UV-irradiation, and exchanged with the peptide of interest as analyzed. Only peptide candidates that can effectively bind and stabilize the peptide-receptive MHC molecules prevent dissociation of the MHC complexes. To determine the yield of the exchange reaction, an ELISA was performed based on the detection of the light chain (β2m) of stabilized MHC complexes. The assay was performed as generally described in Rodenko et al. (Rodenko et al., 2006).
96 well MAXISorp plates (NUNC) were coated over night with 2 ug/ml streptavidin in PBS at room temperature, washed 4× and blocked for 1 h at 37° C. in 2% BSA containing blocking buffer. […] Peptide-MHC monomers of the UV-exchange reaction were diluted 100 fold in blocking buffer. Samples were incubated for 1 h at 37° C., washed four times, incubated with 2 ug/ml HRP conjugated anti-βm for 1 h at 37° C., washed again and detected with TMB solution that is stopped with […]. Absorption was measured at 450 nm. Candidate peptides that show a high exchange yield (preferably higher than 50%, most preferred higher than 75%) are generally preferred for a generation and production of antibodies or fragments thereof, and/or T cell receptors or fragments thereof, as they show sufficient avidity to the MHC molecules and prevent dissociation of the MHC complexes.

[2] = test system: CD8+ T cells of healthy HLA-A*02+ donors; test: In vitro immunogenicity: priming of CD8+ T cells with aAPCs loaded with HLA-A*02/peptide complexes and anti-CD28, multimer staining; assay type: cell-based, human; conditions: HLA-A*02 peptides of Table 12B
Experimental: CD8+ T cells were primed using artificial APCs coated with anti-CD28 mAb and HLA-A*02 in complex with SEQ ID NO: 2 peptide (FIG. 4A, left panel), SEQ ID NO: 9 peptide (FIG. 4B, left panel) and SEQ ID NO: 331 peptide (FIG. 4C, left panel), respectively. After three cycles of stimulation, the detection of peptide-reactive cells was performed by 2D multimer staining with A*02/SEQ ID NO: 2 (A), A*02/SEQ ID NO: 9 (B) or A*02/SEQ ID NO: 331 (C). Right panels (FIGS. 4A, 4B and 4C) show control staining of cells stimulated with irrelevant A*02/peptide complexes. Viable singlet cells were gated for CD8+ lymphocytes. Boolean gates helped excluding false-positive events detected with multimers specific for different peptides. Frequencies of specific multimer+ cells among CD8+ lymphocytes are indicated.
In order to obtain information regarding the immunogenicity of the TUMAPs of the present invention, the inventors performed investigations using an in vitro T-cell priming assay based on repeated stimulations of CD8+ T cells with artificial antigen presenting cells (aAPCs) loaded with peptide/MHC complexes and anti-CD28 antibody.
In order to perform in vitro stimulations by artificial antigen presenting cells loaded with peptide-MHC complex (pMHC) and anti-CD28 antibody, the inventors first isolated CD8+ T cells from fresh HLA-A*02 leukapheresis products via positive selection using CD8 microbeads (Miltenyi Biotec, Bergisch-Gladbach, Germany) of healthy donors obtained from the University clinics Mannheim, Germany, after informed consent.
PBMCs and isolated CD8+ lymphocytes were incubated in T-cell medium (TCM) until use consisting of RPMI-Glutamax (Invitrogen, Karlsruhe, Germany) supplemented with 10% heat inactivated human AB serum (PAN-Biotech, Aidenbach, Germany), 100 U/ml Penicillin/100 μg/ml Streptomycin (Cambrex, Cologne, Germany), 1 mM sodium pyruvate (CC Pro, Oberdorla, Germany), 20 μg/ml Gentamycin (Cambrex). 2.5 ng/ml IL-7 (PromoCell, Heidelberg, Germany) and 10 U/ml IL-2 (Novartis Pharma, Nurnberg, Germany) were also added to the TCM at this step.
Generation of pMHC/anti-CD28 coated beads, T-cell stimulations and readout was performed in a highly defined in vitro system using four different pMHC molecules per stimulation condition and 8 different pMHC molecules per readout condition.
The purified co-stimulatory mouse IgG2a anti human CD28 Ab 9.3 (Jung et al., 1987) was chemically biotinylated using Sulfo-N-hydroxysuccinimidobiotin as recommended by the manufacturer (Perbio, Bonn, Germany). Beads used were 5.6 μm diameter streptavidin coated polystyrene particles (Bangs Laboratories, Illinois, USA).
pMHC used for positive and negative control stimulations were A*0201/MLA-001 (peptide […] (SEQ ID NO. 418) from modified Melan-A/MART-1) and A*0201/DDX5-001 ([…] from DDX5, SEQ ID NO. 419), respectively.
800.000 beads/200 μl were coated in 96-well plates in the presence of 4×12.5 ng different biotin-pMHC, washed and 600 ng biotin anti-CD28 were added subsequently in a volume of 200 μl. Stimulations were initiated in 96-well plates by co-incubating 1×10^6 CD8+ T cells with 2×10^5 washed coated beads in 200 μl TCM supplemented with 5 ng/ml IL-12 (PromoCell) for 3 days at 37° C. Half of the medium was then exchanged by fresh TCM supplemented with 80 U/ml IL-2 and incubating was continued for 4 days at 37° C. This stimulation cycle was performed for a total of three times. For the pMHC multimer readout using 8 different pMHC molecules per condition, a two-dimensional combinatorial coding approach was used as previously described (Andersen et al., 2012) with minor modifications encompassing coupling to 5 different fluorochromes. Finally, multimeric analyses were performed by staining the cells with Live/dead near IR dye (Invitrogen, Karlsruhe, Germany), CD8-FITC antibody clone SKI (BD, Heidelberg, Germany) and fluorescent pMHC multimers. For analysis, a BD LSRII SORP cytometer equipped with appropriate lasers and filters was used. […]

Substance	Peptide exchange (MHC class I binding score, peptide exchange yield) [1]	Wells positive [%] [2]
9 (FLGDYVENL; listed as Homo sapiens) [compound 9]	++ (20%-49% = ++)	+ (<20% = +)
8 (KLGPFLLNA; listed as Homo sapiens) [compound 8]	+++ (50%-75% = +++)	+++ (50%-69% = +++)
2 (ALYGKLLKL; listed as Homo sapiens) [compound 2]	+++ (50%-75% = +++)	++++ (>= 70 % = ++++)
17 (ILHEHHIFL; listed as Homo sapiens) [compound 17]	+++ (50%-75% = +++)	+ (<20% = +)
7 (AAAAKVPEV; listed as Homo sapiens) [compound 7]	+++ (50%-75% = +++)	+ (<20% = +)
322 (ALVSGGVAQA; listed as Homo sapiens) [compound 322]	+++ (50%-75% = +++)	+ (<20% = +)
331 (AIWKELISL; listed as Homo sapiens) [compound 331]	+++ (50%-75% = +++)	++ (20%-49% = ++)
43 (LLWAGPVTA; listed as Homo sapiens) [compound 43]	+++ (50%-75% = +++)	++++ (>= 70 % = ++++)
